According to publication PMC11142708:

Biological target: microtubule
Test: optical trap binding-time assay; kinesin held by its C-terminal His tag on a polystyrene bead (0.56 um, streptavidin with biotinylated penta-His antibody), at most one motor per bead, trapped 0, 20, 40 or 60 nm from a surface-attached microtubule; binding time = time from unbinding to the next detectable bead displacement (>15 nm); room temperature; motility buffer (80 mM Pipes pH 6.9, 50 mM CH3COOK, 4 mM MgSO4, 1 mM DTT, 1 mM EGTA, 10 uM taxol, 1 mg/mL casein) with 2 mM ATP and an oxygen-scavenging system; the rates of Table 1 are fits of Brownian dynamics models to the mean binding times of all three motor lengths together

| binding time (plateau at close distances) [s] | koff^ADP,fast (rate of the weak-to-strong binding transition on the microtubule; diffusion with ADP state model) [s⁻¹] | koff^MT (unbinding from the weakly bound state, at zero force; diffusion with ADP state model) [s⁻¹] | kon^MT (microscopic first-order binding rate when the head is within 5 nm of the microtubule; diffusion with ADP state model) [s⁻¹] | kon^MT (microscopic first-order binding rate; simple diffusion model) [s⁻¹] | Substance |
| --- | --- | --- | --- | --- | --- |
| 1 | 2.12 | 0.2 | 70.7 | 80.6 | DK-406-His (Drosophila Kinesin aa 1-406; His tag at c-term) (from UniProt P17210 1-406) (domain or fragment) |
| 1 | 2.12 | 0.2 | 70.7 | 80.6 | DK-560-His (Kinesin-1, aa 1-560; His tag at c-term) (from UniProt P17210 1-560) (domain or fragment) |
| 1 | 2.12 | 0.2 | 70.7 | 80.6 | DK-746-His (Drosophila Kinesin aa 1-746; His tag at c-term) (from UniProt P17210 1-746) (domain or fragment) |
